Source: the Human Domainome abundance scans (Beltran et al. 2025)
± gives the uncertainty stated by the source.

B1: Membrane-associated guanylate kinase, WW and PDZ domain-containing protein 2, residues 601 to 682; numbered along this chain, Q86UL8 (parent)
chain: AELMTLTIVKGAQGFGFTIADSPTGQRVKQILDIQGCPGLCEGDLIVEINQQNVQNLSHTEVVDILKDCPIGSETSLIIHRG

Variants of: B1
Assay: abundance fitness (aPCA) (normalised: wild type 0, dead -1); higher = more abundant; growth selection in yeast, the domain comes from the species named
Settings: Homo sapiens

Point of comparison: P38L, abundance fitness 0.037 ± 0.098. Against it:
- T24Y — within error, -0.021 ± 0.075
- T24D — within error, -0.037 ± 0.05
- T24F — within error, -0.053 ± 0.087
- T24C — within error, -0.03 ± 0.066
- T24M — within error, -0.031 ± 0.057
- T24A — within error, -0.013 ± 0.037
- T24R — within error, 0.007 ± 0.038
- T24Q — within error, -0.035 ± 0.044
- T24W — within error, -0.076 ± 0.06
- T24G — within error, 0.041 ± 0.035
- T24L — within error, -0.023 ± 0.041
- T24P — within error, -0.017 ± 0.041
- T24N — within error, -0.004 ± 0.099
- T24H — within error, 0.02 ± 0.071
- T24V — within error, -0.08 ± 0.04
- T24E — within error, 0.024 ± 0.046
- I34V — within error, 0.017 ± 0.059
- I34Q — within error, -0.031 ± 0.081
- I34S — within error, -0.017 ± 0.063
- I34P — within error, -0.072 ± 0.068
- I34T — within error, -0.072 ± 0.067
- I34G — within error, -0.021 ± 0.05
- I34M — within error, -0.061 ± 0.066
- I34H — within error, -0.153 ± 0.092
- I34C — within error, -0.076 ± 0.086
- I34D — within error, -0.036 ± 0.08
- I34F — within error, -0.066 ± 0.17
- I34R — within error, -0.092 ± 0.043
- I34L — within error, 0.007 ± 0.064
- I34N — within error, 0.034 ± 0.13
- I34A — within error, -0.026 ± 0.053
- I34E — within error, -0.045 ± 0.07
- I34K — within error, -0.007 ± 0.076
- I34Y — within error, 0.013 ± 0.093
- I34W — within error, -0.101 ± 0.063
- Q35S — within error, -0.005 ± 0.13
- Q35V — within error, -0.064 ± 0.17
- Q35T — within error, 0.209 ± 0.35
- Q35H — within error, 0.08 ± 0.29
- Q35K — within error, -0.278 ± 0.24
- Q35R — within error, 0.021 ± 0.12
- Q35L — within error, -0.115 ± 0.094
- Q35P — lower, -0.243 ± 0.16
- Q35G — within error, 0.052 ± 0.11
- Q35Y — within error, -0.066 ± 0.24
- Q35A — within error, 0.086 ± 0.15
- P23T — within error, -0.058 ± 0.053
- P23Y — within error, -0.16 ± 0.13
- P23G — within error, -0.09 ± 0.039
- P23R — within error, -0.03 ± 0.038
- P23I — lower, -0.17 ± 0.097
- P23Q — within error, -0.029 ± 0.056
- P23H — lower, -0.303 ± 0.16
- P23V — lower, -0.297 ± 0.04
- P23W — within error, -0.03 ± 0.053
- P23F — within error, -0.106 ± 0.091
- P23L — within error, -0.018 ± 0.042
- P23E — within error, -0.022 ± 0.043
- P23N — within error, -0.045 ± 0.11
- P23M — within error, -0.072 ± 0.068
- P23K — within error, 0.023 ± 0.049
- P23C — within error, 0.021 ± 0.084
- P23D — within error, -0.129 ± 0.1
- K29D — within error, 0.108 ± 0.28
- K29A — within error, -0.095 ± 0.1
- K29R — within error, -0.047 ± 0.062
- K29L — lower, -0.212 ± 0.099
- K29E — within error, 0.084 ± 0.15
- K29V — within error, -0.122 ± 0.086
- K29S — within error, 0.039 ± 0.2
- K29I — lower, -0.395 ± 0.29
- K29C — within error, -0.091 ± 0.13
- K29G — within error, -0.004 ± 0.087
- K29Q — within error, -0.053 ± 0.13
- K29H — within error, 0.181 ± 0.33
- S22L — within error, -0.049 ± 0.085
- S22Q — within error, 0.023 ± 0.1
- S22N — lower, -0.39 ± 0.17
- S22Y — within error, -0.04 ± 0.23
- S22P — lower, -0.671 ± 0.19
- S22W — within error, -0.056 ± 0.15
- S22G — within error, 0.03 ± 0.061
- S22K — within error, 0.062 ± 0.2
- S22E — within error, -0.114 ± 0.097
- S22C — within error, -0.117 ± 0.2
- S22F — within error, -0.105 ± 0.094
- S22T — within error, -0.076 ± 0.11
- S22D — within error, 0.048 ± 0.27
- S22V — within error, -0.063 ± 0.13
- S22R — within error, 0.03 ± 0.13
- S22A — within error, 0.075 ± 0.1
- D33E — within error, -0.089 ± 0.054
- D33K — lower, -0.192 ± 0.084
- D33R — within error, -0.061 ± 0.041
- D33W — within error, -0.117 ± 0.066
- D33V — lower, -0.152 ± 0.052
- D33G — lower, -0.11 ± 0.04
- D33I — lower, -0.243 ± 0.11
- D33M — lower, -0.124 ± 0.06
- D33N — within error, -0.043 ± 0.082
- D33T — within error, -0.02 ± 0.059
- D33P — lower, -0.147 ± 0.051
- D33Y — within error, 0.049 ± 0.1
- D33H — within error, -0.088 ± 0.071
- D33C — within error, -0.092 ± 0.08
- D33Q — within error, 0.024 ± 0.076
- Q26H — within error, -0.124 ± 0.14
- Q26F — within error, -0.194 ± 0.23
- Q26K — within error, 0.038 ± 0.06
- Q26P — within error, 0.045 ± 0.088
- Q26E — within error, 0.016 ± 0.055
- Q26N — within error, -0.139 ± 0.12
- Q26A — within error, 0.063 ± 0.047
- Q26G — within error, -0.032 ± 0.04
- Q26I — within error, -0.111 ± 0.12
- Q26D — within error, -0.176 ± 0.13
- Q26S — within error, -0.071 ± 0.05
- Q26T — within error, -0.007 ± 0.055
- Q26W — within error, -0.105 ± 0.051
- Q26L — within error, -0.028 ± 0.041
- Q26V — within error, -0.025 ± 0.042
- Q26R — within error, -0.032 ± 0.039
- Q26C — within error, -0.039 ± 0.13
- Q26Y — within error, 0.316 ± 0.4
- P38Q — within error, -0.121 ± 0.14
- P38W — within error, -0.09 ± 0.15
- P38V — within error, -0.097 ± 0.088
- P38H — within error, -0.363 ± 0.36
- P38E — within error, -0.11 ± 0.09
- P38K — within error, -0.001 ± 0.17
- P38R — within error, -0.13 ± 0.098
- P38G — within error, -0.067 ± 0.077
- P38A — within error, -0.096 ± 0.12
- P38S — within error, -0.056 ± 0.094
- P38T — within error, -0.038 ± 0.096
- P38C — within error, -0.158 ± 0.11
- Q30S — within error, -0.076 ± 0.098
- Q30T — within error, -0.117 ± 0.19
- Q30K — within error, 0.363 ± 0.34
- Q30L — within error, 0.066 ± 0.1
- Q30W — within error, 0.04 ± 0.27
- Q30N — within error, -0.302 ± 0.48
- Q30F — within error, 0.234 ± 0.24
- Q30E — within error, -0.188 ± 0.14
- Q30R — within error, -0.111 ± 0.094
- Q30C — within error, -0.205 ± 0.16
- Q30D — within error, -0.022 ± 0.2
- Q30A — within error, -0.052 ± 0.17
- Q30V — within error, -0.102 ± 0.07
- Q30M — within error, 0.098 ± 0.12
- Q30Y — within error, -0.064 ± 0.15
- Q30H — within error, -0.062 ± 0.15
- Q30P — within error, -0.103 ± 0.11
- F17L — lower, -0.124 ± 0.032
- F17T — lower, -1.2 ± 0.13
- F17K — lower, -0.978 ± 0.13
- F17M — within error, -0.105 ± 0.044
- F17P — lower, -1.04 ± 0.1
- F17W — within error, -0.022 ± 0.039
- F17S — lower, -1.29 ± 0.12
- F17Q — lower, -1.07 ± 0.23
- F17R — lower, -1.12 ± 0.091
- F17Y — lower, -0.277 ± 0.061
- F17N — lower, -1.36 ± 0.36
- G39P — within error, -0.083 ± 0.13
- G39A — within error, -0.052 ± 0.1
